Data taken from article PMC12775068.

Target: MUC2C-N (human MUC2 residues 4256-4803, C4786A; PTS3, VWCN, D4 and VWC1) (human)
Test: cross-linking

Substance: MUC2C-N (human MUC2 residues 4256-4803, C4786A; PTS3, VWCN, D4 and VWC1) (domain or fragment)
- stoichiometry N: 2
